Tests used:
[1] = molecular target: SNAP25 (mouse (endogenous in mouse brain synaptosomes)) (UniProt P60879); test: affinity purification with mass spectrometry
[2] = molecular target: SNAP25 (mouse (endogenous in mouse brain synaptosomes)) (UniProt P60879); test: co-IP

Sequence of UniProt P60879 (P60879 whole entry): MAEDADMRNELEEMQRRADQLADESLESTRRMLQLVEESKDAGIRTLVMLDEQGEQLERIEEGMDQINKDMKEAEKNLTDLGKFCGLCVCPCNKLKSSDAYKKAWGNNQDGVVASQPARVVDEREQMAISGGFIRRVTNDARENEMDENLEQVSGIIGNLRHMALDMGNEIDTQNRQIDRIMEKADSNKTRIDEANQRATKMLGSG

fold increase of the interaction upon epi stimulation against the basal state [1]	amount pulled down with SNAP25 per half brain [2]	Substance
10 fold	–	Gβ1 (from UniProt P62874 1-340) (natural protein)
–	1 µg	Gβγ (from UniProt P62874 1-340; P63216 1-75) (complex)

Source: doi:10.1101/2020.04.29.065136
